Results taken from patent US6602687B1, “DNA encoding human ciliary neurotrophic factor and method for producing the protein encoded thereby” (Regeneron Pharmaceuticals, Inc., priority 1989, dated 2003).

Columns and labels:
[1] = tested on: AchE-containing ventral spinal cord neurons; test: Count of AchE-containing neurons in ventral spinal cord cultures; format: cell-based, rat; details: CNTF 10 ng/ml at plating; 7 days
Procedure: (§1) Sprague-Dawley rats (HSD or Zivic-Miller) were used for all experiments. Pregnant rats (E14) were sacrificed as described in 10.1.1.
Spinal cords were removed aseptically from rat embryos as described in 10.1.2. The cord tissues were minced into small pieces and incubated in 0.1% trypsin (GIBCO) and 0.01% deoxyribonuclease type 1 (Sigma) at 37° C. for 20 minutes. Trypsin solution was then removed, rinsed and replaced with medium consisting of 45% Eagle's minimum essential medium (MEM), 45% Ham's nutrient mixture F12 (F12), 5% fetal calf serum (GIBCO), 5% horse serum (GIBCO) glutamine (2 mM), penicillin G (0.5 U/ml), and streptomycin (0.5 ug/ml). This was then mechanically dissociated twice by gentle trituration through a Pasteur pipet in the same medium, and the supernatants were pooled and filtered through a nylon filter (Nitex, Tetko; 40 um). Total cell number yielded was determined by hemocytometer counting in the presence of trypan blue. Dissociated ventral cells were then plated at a density of approximately 50,000 cells/cm^2 on dishes coated with poly-L-ornithine (10 ug/ml) and laminin (5 ug/ml). Treatments were given on the day of plating, except for delayed addition experiments in which treatments were given on days 2 or 6. Cultures were maintained at 37° C. in 95% air/5% CO2 atmosphere at nearly 100% relative humidity. Culture medium was changed every 3 to 4 days. […]

[2] = tested on: E8 chick ciliary ganglion neurons; test: Survival of dissociated E8 chick ciliary ganglion neurons; format: cell-based; details: saturating levels of recombinant human CNTF; 48 hr
Text: Ciliary neurotrophic factor activity may be evaluated using any CNTF-sensitive in vivo or in vitro system known in the art. For example, and not by way of limitation, in vitro systems have been developed which measure CNTF activity by quantitating 24-hour survival of embryonic (E8) chick ciliary ganglion (CG) neurons in monolayer cultures.
For example, ciliary ganglia may be collected from E8 chick embryos, dissociated (yielding approximately 20,000 cells per ganglion) and then diluted in HEBM medium containing 20 percent horse serum as described in Varon et al. (1979, Brain Res. 173:29-45). About fifty microliters of cell suspension containing neurons (2,000 cells) may then be seeded into microliter dishes and putative CNTF activity may be added. Culture plates may then be maintained at 37° C. in 5% CO2 for 24 hours, after which the cultures may be fixed by the addition of 200 μl 2 per cent glutaraldehyde in HEBM medium, and the number of surviving neurons may be determined visually by direct count under phase contrast microscopy.
Chick embryo ciliary ganglion cultures were created and maintained according to the method set forth in (Hughes et al., 1988, Nature 335 : 70-73).
Biological activity of recombinant CNTF was assayed on explants of chick embryo dorsal root ganglia (DRG) and dissociated cultures of ciliary ganglion (CG) neurons as described in Lindsay and Rohrer (1985, Devel. Biol 112:30-48). Briefly, DRG were dissected from chick embryos of 10 days incubation (E10) and 5-6 ganglia were explanted in 1 ml of a collagen gel matrix in 35 mm tissue culture dishes. After the gel had set, 1 ml of tissue culture growth medium F14 (Imperial Labs., U.K.) supplemented with 5% heat-inactivated horse serum (GIBCO) was added before adding human CNTF (1-20 l) to a final concentration of 100 pg to 100 ng/ml. CG were dissected from E8 chick embryos and incubated for 30 min in 0.25% trypsin (Worthington) in calcium- and magnesium-free phosphate buffered saline. The ganglia were then washed three times in F14 medium containing 5% horse serum before being dissociated to a single cell suspension by trituration through the bore of a Pasteur pipette. Enrichment for CG neurons was achieved by plating the cell suspension for 3.5 hr in a 60 mm dish, during which non-neuronal cells (fibroblasts and Schwann cells) attached firmly to the plastic while phase-bright neurons remained in suspension. The purified neurons were plated on polyornithine-laminin-coated 35 mm culture dishes at 8,000-10,000 neurons/dish. In explant cultures CNTF activity was determined by assessing the extent of fiber outgrowth in treated cultures compared to controls. Fiber outgrowth was scored on a scale of 0 to 5+, by comparing cultures to photographs of a dose-response of explanted DRG and NGF. In dissociated CG neuron cultures, CNTF activity was determined by counting at 48 hr the percentage of process-bearing neurons in control and CNTF-treated cultures. In all cases results were derived from triplicate cultures.

[3] = tested on: Ventral spinal cord neurons; test: Choline acetyltransferase (CAT) activity in ventral spinal cord cultures; format: cell-based, rat
Procedure: as §1
Spinal cords were removed aseptically from rat embryos as described in 10.1.2. The cord tissues were minced into small pieces and incubated in 0.1% trypsin (GIBCO) and 0.01% deoxyribonuclease type 1 (Sigma) at 37° C. for 20 minutes. Trypsin solution was then removed, rinsed and replaced with medium consisting of 45% Eagle's minimum essential medium (MEM), 45% Ham's nutrient mixture F12 (F12), 5% fetal calf serum (GIBCO), 5% horse serum (GIBCO) glutamine (2 mM), penicillin G (0.5 U/ml), and streptomycin (0.5 ug/ml). This was then mechanically dissociated twice by gentle trituration through a Pasteur pipet in the same medium, and the supernatants were pooled and filtered through a nylon filter (Nitex, Tetko; 40 um). Total cell number yielded was determined by hemocytometer counting in the presence of trypan blue. Dissociated ventral cells were then plated at a density of approximately 50,000 cells/cm^2 on dishes coated with poly-L-ornithine (10 ug/ml) and laminin (5 ug/ml). Treatments were given on the day of plating, except for delayed addition experiments in which treatments were given on days 2 or 6. Cultures were maintained at 37° C. in 95% air/5% CO2 atmosphere at nearly 100% relative humidity. Culture medium was changed every 3 to 4 days. A mitotic inhibitor, cytosine arabinoside (Ara C; 0.5 uM), was added on day 2 to reduce the number of nonneuronal cells. On day 7, cells were harvested for measurements of choline acetyltransferase (CAT; Fonnum, 1975 J. Neurochem. 24:407-409) and protein (Bradford, 1976, Annal. Biochem. 72:248-254) levels or fixed in 4% paraformaldehyde for NF assay (Doherty et al., 1984, J. Neurochem. 42:1116-1122) and immunocytochemistry. Some cultures were grown in defined medium consisting of 50% F12 and 50% MEM, glutamine (2 mM), insulin (5 ug/ml), transferrin (100 ug/ml), progesterone (20 nM), putrescine (10 uM), and sodium selenite (30 nM) (Bottenstein and Sato, 1979, PNAS 76:514-517). In these cultures sera-containing medium was replaced with defined medium on day 1.
Cultures were harvested by lysing the cells in a 20 mM Tris-HCl (pH 8.6) solution containing 0.1% Triton X-100. Two microliters of the cell lysate was removed and assayed for CAT activity according to the micro-Fonnum procedure (Fonnum, 1975, J. Neurochem. 24:407-409). The final substrate composition consisted of 0.2 mM [1-^14C] Acetyl-CoA (NEN, 54.4 mCi/mmol), 300 mM NaCl, 8 mM choline bromide, 20 mM EDTA, and 0.1 mM neostigmine in 50 mM NaH2PO4 (pH 7.4) buffer. At these enzyme and substrate concentrations, the enzymatic reaction was linear for 90-120 minutes. The specificity of the induction for CAT was tested by the addition of a specific inhibitor of CAT activity, N-hydroxyethyl-4-(1-napthylvinyl) pyridium (HNP), during the assay (White and Cavallito, 1970, J. Neurochem. 17:1579-1589).

B1: CNTF: ciliary neurotrophic factor; recombinant rat CNTF in Sections 10, 15, 17, purified rat sciatic nerve CNTF in Section 11; see endpoint conditions (protein, UniProt P20294 1-200, looked up)
Ciliary neurotrophic factor: MAFAEQTPLTLHRRDLCSRSIWLARKIRSDLTALMESYVKHQGLNKNINLDSVDGVPVASTDRWSEMTEAERLQENLQAYRTFQGMLTKLLEDQRVHFTPTEGDFHQAIHTLMLQVSAFAYQLEELMVLLEQKIPENEADGMPATVGDGGLFEKKLWGLKVLQELSQWTVRSIHDLRVISSHQMGISALESHYGAKDKQM
[1]
  increase in AchE-positive neurons versus untreated controls: 2.5 fold
[2]
  neurons surviving and elaborating long neurites: 60-70%
[3]
  time after treatment at which increase in CAT activity was apparent: 3 days
[3]; AraC 0.5 uM or serum-free medium, CNTF 10 ng/ml
  effect on CAT activity with glia reduced to about 5% of total cells: remained unchanged
[3]; CNTF 10 ng/ml
  increase in CAT activity over the increase in number of cholinergic neurons: 1.6 fold
[3]; CNTF 10 ng/ml added on day 2, treated 7 further days
  increase in CAT activity, delayed addition at day 2: 1.2 fold
[3]; CNTF 10 ng/ml added on day 6, treated 7 further days
  effect on CAT activity, delayed addition at day 6: can no longer influence CAT activity
[3]; CNTF 10 ng/ml, NGF 50 ng/ml, FGF 50 ng/ml at plating, after 7 days in culture
  increase in CAT activity: 4.0 fold
[3]; day 7
  CNTF concentration of maximal response in CAT activity: 1 ng/mL
